Experiment [1] concerns the target chimeric factor Xa variant B (human FXa with His91-Tyr99 replaced by the homologous region of Tropid (human | Tropidechus carinatus)). Nature of the experiment: inhibition of enzyme amidolytic activity (Morrison tight-binding fit).
The target in experiment [2] is chimeric factor Xa variant C (human FXa with His91-Tyr99 replaced by the homologous region of P. textilis isoform FX) (human | Pseudonaja textilis). Described as above.
Experiment [3] has as its target plasma-derived human factor Xa (human). Described as above.
The target of experiment [4] is recombinant wild-type human factor Xa (human). Described as above.
The target in experiment [5] is constitutively active partial B-domainless recombinant form of human FV (FV-810) (human) (UniProt P12259). Description: kinetic assay of prothrombinase assembly (rate of prothrombin activation); apparent; steady-state initial velocities of prothrombin activation at 25 °C in assay buffer (20 mM Hepes, 0.15 M NaCl, pH 7.5, 5 mM CaCl2, 0.1% PEG8000) with PCPS (50 µM); how the cofactor was varied is not told.

Experiment [6] concerns the target purified recombinant P. textilis venom FXa (v-FXa) (Pseudonaja textilis, UniProt Q56VR3). Nature of the experiment: biochemical.
Experiment [7] deals with chimeric factor Xa variant B (human FXa with His91-Tyr99 replaced by the homologous region of Tropid (human | Tropidechus carinatus)).
Experiment [8] has as its target chimeric factor Xa variant C (human FXa with His91-Tyr99 replaced by the homologous region of P. textilis isoform FX) (human | Pseudonaja textilis).
Experiment [9] concerns the target plasma-derived human factor Xa (human).
The target of experiment [10] is recombinant wild-type human factor Xa (human).
In experiment [11] the target is T1, pd-FXa (h-FXa) (Homo sapiens, UniProt P00742).
T1 construct: gene F10; plasma-derived human FXa (Haematologic Technologies); free or prothrombinase-assembled with FV-810 and PCPS, see series
In kind it is biochemical. Particulars: read-out: SpecXa Michaelis–Menten constant (K m).

Experiment [12] addresses T2, wt-FXa (WT) (Homo sapiens, UniProt P00742).
T2 construct: gene F10; free or prothrombinase-assembled with FV-810 and PCPS, see series
In kind it is biochemical. The conditions noted are these: read-out: SpecXa Michaelis–Menten constant (K m).

The subject of experiment [13] is T3, FXa-A.
T3 construct: His91-Tyr99 replaced with homologous region of P. textilis venom FX
In kind it is biochemical. The conditions noted are these: read-out: SpecXa Michaelis–Menten constant (K m).

In experiment [14] the test system is T4, FXa-B.
T4 construct: His91-Tyr99 replaced with homologous region of T. carinatus venom FX
It counts as biochemical. Particulars: read-out: SpecXa Michaelis–Menten constant (K m).

In experiment [15] the test system is T5, FXa-C.
T5 construct: His91-Tyr99 replaced with homologous region of P. textilis isoform FX
It counts as biochemical. The conditions noted are these: read-out: SpecXa Michaelis–Menten constant (K m).

In experiment [16] the target is T6, pd-FXa (Homo sapiens, UniProt P00742).
T6 construct: the heavy chain derived from α or β FXa (α/β), the FXa light chain (LC); purchased Haematologic Technologies (Essex Junction, VT, USA); host or cells: human plasma
It counts as biochemical.

The target in experiment [17] is T7, wt-FXa (Homo sapiens, UniProt P00742).
T7 construct: made in house; host or cells: HEK293 (co-transfected with furin)
Description: Inhibition of FXa by TFPI and rTAP (residual amidolytic activity). It counts as biochemical.

Experiment [18] has as its target FXa-A (Homo sapiens, UniProt P00742). It counts as biochemical, human-snake chimera. Particulars: rTAP 0.5–100 nM, 1 nM FXa, 30 min.
Experiment [19] deals with FXa-B (Homo sapiens, UniProt P00742). Description: Inhibition of FXa by TFPI and rTAP (residual amidolytic activity). The conditions noted are these: rTAP 0.5–100 nM, 1 nM FXa, 30 min. It counts as biochemical, human-snake chimera.
Experiment [20] relates to FXa-B. The description is as above. It counts as biochemical, human-snake chimera. The conditions noted are these: in the chimeric FXa variants.
The target in experiment [21] is T8, FXa-C (Homo sapiens, UniProt P00742, E317A/INS311KKFVPPQKA/K316L/N312Y/R313K/T315D/T318A).
T8 construct: made in house
In kind it is biochemical, human-snake chimera. Particulars: rTAP 0.5–100 nM, 1 nM FXa, 30 min.

In experiment [22] the target is RVV-X activated P. textilis venom FX (Pseudonaja textilis, UniProt Q56VR3). Description: biochemical.
Experiment [23] addresses RVV-X activated P. textilis isoform FX (Pseudonaja textilis, UniProt Q1L658). Description: biochemical.
In experiment [24] the target is RVV-X activated P. textilis liver FX (Pseudonaja textilis, UniProt Q1L659). Description: biochemical.
Experiment [25] addresses T1, pd-FXa (h-FXa). It counts as biochemical. Particulars: read-out: S2765^a K m; n = 2.
In experiment [26] the target is T2, wt-FXa (WT). In kind it is biochemical. The conditions noted are these: read-out: S2765^a K m; n = 2.
Experiment [27] relates to T3, FXa-A. It counts as biochemical. The conditions noted are these: n = 2; read-out: S2765^a K m.
Experiment [28] deals with T4, FXa-B. In kind it is biochemical. Particulars: n = 2; read-out: S2765^a K m.
The test system of experiment [29] is T5, FXa-C. In kind it is biochemical. Particulars: n = 2; read-out: S2765^a K m.
Experiment [30] addresses T1, pd-FXa (h-FXa). In kind it is biochemical. The conditions noted are these: read-out: S2765^b K m; n = 2.
For experiment [31], the target named is T2, wt-FXa (WT). In kind it is biochemical. Particulars: read-out: S2765^b K m; n = 2.
For experiment [32], the system named is T3, FXa-A. In kind it is biochemical. The conditions noted are these: n = 2; read-out: S2765^b K m.
For experiment [33], the system named is T4, FXa-B. In kind it is biochemical. The conditions noted are these: n = 2; read-out: S2765^b K m.
Experiment [34] relates to T5, FXa-C. It counts as biochemical. Particulars: n = 2; read-out: S2765^b K m.

Where two headings read alike, the source gives them in different places. Non-standard residues stand in square brackets, D forms with d. Residues, ends and D or L forms follow the SMILES beside them. *: point of attachment. dChg = N[C@@H](C(=O)O)C1CCCCC1; pNA = O=[N+]([O-])c1ccc(N*)cc1; Cbz = O=C(OCc1ccccc1)*; Moc = COC(=O)* Where only a bound is given, the exact number is not on record here.

The term Ki denotes the dissociation constant of the complex between target and ligand, obtained from inhibition or displacement. For orientation: IC50 means the point on the concentration scale where inhibition reaches its midpoint.

In the case of “recombinant tick saliva anticoagulant protein (from UniProt P17726 1-60) (natural protein)”, the Ki was 7.92 nM in [1], 20.2 nM in experiment [2], 0.87 nM in experiment [3] and 0.7 nM in experiment [4].
For “chimeric factor Xa variant C (human FXa with His91-Tyr99 replaced by the homologous region of P. textilis isoform FX) (enzyme)”, the Kd in [5] is 0.57 nM.
In the case of `O=C(NC[C@H]1CN(c2ccc(N3CCOCC3=O)cc2)C(=O)O1)c1ccc(Cl)s1` [Rivaroxaban, 5-chloro-N-({(5S)-2-oxo-3-[4-(3-oxomorpholin-4-yl)phenyl]-1,3-oxazolidin-5-yl}methyl)thiophene-2-carboxamide], the IC50 in [6] was no less than 30000 nM.
Consider “recombinant wild-type human factor Xa (enzyme)”, for which, in experiment [5], the Kd amounted to 1.44 nM.
As to “chimeric factor Xa variant B (human FXa with His91-Tyr99 replaced by the homologous region of Tropid (enzyme)”, the Kd in [5] came out at 0.85 nM.
Regarding “antithrombin (from UniProt P01008 33-464) (natural protein)”, the k 2, UFH: second-order rate constant of FXa inhibition by antithrombin with unfractionated heparin in experiment [7] was 1.02e+06 M⁻¹ s⁻¹; in experiment [8] it was 6.73e+06 M⁻¹ s⁻¹; in experiment [9], 3.59e+06 M⁻¹ s⁻¹; in [10], 3.09e+06 M⁻¹ s⁻¹. Also, the k 2, uncatalyzed: second-order rate constant of FXa inhibition by antithrombin worked out at 410 M⁻¹ s⁻¹ in [7], 950 M⁻¹ s⁻¹ in [8], 1550 M⁻¹ s⁻¹ in experiment [9] and 4070 M⁻¹ s⁻¹ in experiment [10].
On to `COC(=O)N[C@@H](C(=O)NCC(=O)N[C@@H](CCCNC(=N)N)C(=O)Nc1ccc([N+](=O)[O-])cc1)C1CCCCC1` [SpecXa, methoxycarbonylcyclohexylglycylglycyl-Arg-pNA] (Moc-[dChg]-Gly-Arg-pNA), for which the Km in [11] worked out at 138 µM; in [12] it was 135 µM; in [13], 645 µM; in [14], 658 µM; in experiment [15] it was 659 µM.
Take “rTAP (YNRLCIKPRDWIDECDSNEGGERAYFRNGKGGCDSFWICPEDHTGADYYSSYRDCFNACI)”: the Ki in [16] is 0.87 ± 0.18 nM; in experiment [17], 0.7 ± 0.04 nM; in [18], 26.3 ± 8.45 nM; in experiment [19], 7.92 ± 1.88 nM; in experiment [21], 20.2 ± 6.56 nM. Besides, in experiment [20], the fold reduced binding entry is listed as “at least 11 fold”.
As to `COc1ccc(-n2nc(C(N)=O)c3c2C(=O)N(c2ccc(N4CCCCC4=O)cc2)CC3)cc1` [Apixaban, 1-(4-methoxyphenyl)-7-oxo-6-(4-(2-oxopiperidin-1-yl)phenyl)-4,5,6,7-tetrahydro-1H -pyrazolo[3,4-c]pyridine-3-carboxamide], the IC50 was no less than 100000 nM in experiment [6], no less than 100000 nM in [22], no less than 100000 nM in experiment [23] and 12 nM in [24].
Regarding plasma-derived human factor Xa (enzyme), in [5], the Kd came to 0.41 nM.
`N=C(N)NCCC[C@H](NC(=O)CNC(=O)[C@@H](CCCNC(=N)N)NC(=O)OCc1ccccc1)C(=O)Nc1ccc([N+](=O)[O-])cc1` [S2765, N-α-benzyloxycarbonyl-D-Arg-Gly-Arg-pNA] (Cbz-[dR]-Gly-Arg-pNA): the Km in [25] is 59 ± 19 µM; in [26], 33 ± 7 µM; in [27] it was 39 ± 7 µM; in experiment [28] it was 49 ± 8 µM; in [29] it was 60 ± 11 µM; in experiment [30] it was 29 ± 8 µM. Besides, the Km turned out to be 26 ± 8 µM in experiment [31], 243 ± 50 µM in experiment [32], 249 ± 29 µM in experiment [33] and 216 ± 28 µM in [34].
As for “tissue factor pathway inhibitor alpha (from UniProt P10646-1 29-304) (natural protein)”, the values for the Ki in experiment [1], in experiment [2] and in [4] were 4.41 nM, 6.46 nM and 1.62 nM, respectively.

The values are drawn from PMC5597622, “Engineered factor Xa variants retain procoagulant activity independent of direct factor Xa inhibitors” (Nature Communications, 2017).
